The source of these data is patent US12122842 (R AND D SYSTEMS, dated 2024).

Test [1] has as its target T1, recombinant human CD30 protein (UniProt P28908 19-385).
T1 chain: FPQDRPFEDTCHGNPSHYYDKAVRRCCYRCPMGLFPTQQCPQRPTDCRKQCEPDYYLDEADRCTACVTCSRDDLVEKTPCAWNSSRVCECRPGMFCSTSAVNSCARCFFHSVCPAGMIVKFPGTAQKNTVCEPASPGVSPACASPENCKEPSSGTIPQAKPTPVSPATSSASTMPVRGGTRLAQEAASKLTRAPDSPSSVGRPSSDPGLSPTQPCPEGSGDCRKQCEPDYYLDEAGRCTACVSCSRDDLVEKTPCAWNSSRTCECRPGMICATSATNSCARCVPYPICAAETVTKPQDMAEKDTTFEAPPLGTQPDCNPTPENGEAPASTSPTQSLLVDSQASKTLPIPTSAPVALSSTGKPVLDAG
The experiment in a line: SPR. On the technique in general: In SPR one partner is held on a chip, and binding of the other changes the refractive index at the surface.

Test [2] deals with T2, human CD30/TNFRSF8 on Jurkat human acute T cell leukemia cells (Clone E6-1) (human, UniProt P28908 19-595).
T2 construct: Endogenous CD30 on Jurkat cells; also called hCD30; hCD30/TNFRSF8
T2 sequence: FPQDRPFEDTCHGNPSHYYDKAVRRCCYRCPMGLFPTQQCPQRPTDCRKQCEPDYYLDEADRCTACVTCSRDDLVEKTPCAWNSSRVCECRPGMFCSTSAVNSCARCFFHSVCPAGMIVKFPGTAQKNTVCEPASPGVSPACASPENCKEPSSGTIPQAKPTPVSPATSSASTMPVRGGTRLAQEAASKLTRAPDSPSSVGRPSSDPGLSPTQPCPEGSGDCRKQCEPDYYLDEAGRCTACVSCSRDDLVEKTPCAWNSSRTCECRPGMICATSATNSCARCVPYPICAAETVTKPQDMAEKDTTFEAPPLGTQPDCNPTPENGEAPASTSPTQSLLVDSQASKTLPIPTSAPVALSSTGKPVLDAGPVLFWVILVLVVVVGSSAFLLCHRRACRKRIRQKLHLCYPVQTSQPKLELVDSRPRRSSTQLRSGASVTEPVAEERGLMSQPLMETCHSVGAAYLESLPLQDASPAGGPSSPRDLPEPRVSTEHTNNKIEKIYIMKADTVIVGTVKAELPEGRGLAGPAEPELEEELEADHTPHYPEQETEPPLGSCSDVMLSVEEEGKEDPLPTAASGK
The test is described as follows: flow cytometry on Jurkat cells, PE anti-mouse IgG secondary. The procedure: Jurkat human acute T cell leukemia cell line (Clone E6-1, ATCC Catalog #TIB-152) was stained with Mouse Anti-Human CD30 Monoclonal Antibody (Clone 81316.11, filled histogram) or isotype control antibody (Catalog #MAB002, open histogram), followed by Phycoerythrin-conjugated Anti-Mouse IgG Secondary Antibody (Catalog #F0102B).
Jurkat cells were harvested and washed two times in 2 mL of 1x flow staining buffer (FC001). The cells were resuspended in 1x flow staining buffer to a concentration of ~1.0×10⁶ cells/mL. About 90 µL of the cell suspension was added to each flow tube. About 10 µL of either 25 µg/mL Msxh CD30 or MsIgG1 was added to the appropriate tube, and the tubes were vortexed and then incubated for 20 minutes at room temperature. Cells were washed two times in 2 mL of 1× flow staining buffer. About 10 µL of goat anti-Mouse IgG PE secondary antibody was added to each tube, vortexed, and then incubated in the dark for 20 minutes at room temperature. Cells were washed two times in 2 mL of 1× flow staining buffer. 100 µL of 2× Sytox Blue Dead Cell Stain (ThermoFisher, S34857) was added and the cells were analyzed by flow cytometry.

B1: Mouse Anti-Human CD30 Monoclonal Antibody (Clone 81316.11) (antibody, V domains shown)
VH: QVQLKESGPGLVAPSQSLSITCTVSGFSLTSYGVHWVRQPPGKGLEWLGVIWAGETINYNLALMSRLSISKDNSKSQVFLKMNSLQTEDTAMYYCARDQGEYGNYGWYFDVWGAGTTVTVSS
VL: DIQMTQTTSSLSASLGDRVTISCSASQGISNYLNWYQQKPDGTVKLLIYYTSSLHSGVPSRFSGSGSGTDYSLTISNLEPEDIATYYCQHYSKLPPTFGGGTKLEIKR
notes: It is a mouse monoclonal, and the isotype control used beside it is MsIgG1; also called anti-hCD30 antibody; recombinant hCD30 antibody
As to B1, in test [1], the dissociation constant Kd stood at 5.1 nM. The binding result in test [2] is recorded as “binds”.

As usually defined, the Kd is the concentration at which binding is half-saturated.
